What was measured:
[1] = target: T1, kappa-sCD40(1-94)-Flag point mutant E33A (human, UniProt P25942 21-114); assay: ELISA, mutated kappa-sCD40(1-94)-Flag captured on anti-Flag antibody, detection anti-human IgG Fc-HRP; the concentration axis is taken as that of 3C3
T1 construct: not shown: N-terminal human kappa light chain; C-terminal Flag tag
T1 chain: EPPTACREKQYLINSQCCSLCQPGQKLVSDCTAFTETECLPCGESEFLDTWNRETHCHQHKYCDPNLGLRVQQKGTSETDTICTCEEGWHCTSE
Description: (§1) 1 μg/ml of purified kappa-sCD40-Flag fusion proteins or CHO cell supernatants containing the sCD40 fusion proteins were captured to microtiter plates that were pre-coated with 5 μg/ml mouse anti-Flag antibody (Sigma) in PBS and blocked with 5% bovine serum albumin in PBS. Following incubation with the CD40 antibody, the microplates were washed with PBS/Tween, and incubated with a goat anti-human IgG Fc polyclonal reagent conjugated to horseradish peroxidase. After washing, the plates were developed with HRP substrate, and analyzed at OD 450-650 using a microtiter plate reader. An ELISA with a goat anti-human IgG Fab2-HRP to measure kappa chain binding was carried out in parallel to validate the sCD40 fusion protein expression from different transfections.

[2] = target: T2, kappa-sCD40(1-94)-Flag point mutant P3S (human, UniProt P25942 21-114); assay: as above
T2 construct: not shown: N-terminal human kappa light chain; C-terminal Flag tag
T2 chain: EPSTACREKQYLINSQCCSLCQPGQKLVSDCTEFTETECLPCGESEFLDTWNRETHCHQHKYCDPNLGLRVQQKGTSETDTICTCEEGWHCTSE
Description: as §1

[3] = target: T3, kappa-sCD40(1-94)-Flag point mutant F34L (human, UniProt P25942 21-114); assay: as above
T3 construct: not shown: N-terminal human kappa light chain; C-terminal Flag tag
T3 chain: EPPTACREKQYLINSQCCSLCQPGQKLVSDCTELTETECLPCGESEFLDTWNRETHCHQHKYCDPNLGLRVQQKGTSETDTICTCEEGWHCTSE
Description: as §1

[4] = target: T4, kappa-sCD40(1-94)-Flag point mutant T35E (human, UniProt P25942 21-114); assay: as above
T4 construct: not shown: N-terminal human kappa light chain; C-terminal Flag tag
T4 chain: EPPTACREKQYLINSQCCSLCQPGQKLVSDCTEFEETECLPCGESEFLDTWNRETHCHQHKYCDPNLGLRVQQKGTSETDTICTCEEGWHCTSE
Description: as §1

[5] = target: T5, kappa-sCD40(1-94)-Flag point mutant E36K (human, UniProt P25942 21-114); assay: as above
T5 construct: not shown: N-terminal human kappa light chain; C-terminal Flag tag
T5 chain: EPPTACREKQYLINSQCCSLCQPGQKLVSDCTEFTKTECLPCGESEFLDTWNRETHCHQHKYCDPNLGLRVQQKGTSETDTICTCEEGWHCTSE
Description: as §1

[6] = target: T6, kappa-sCD40(1-94)-Flag mutant fragment B (multiple mutations of residues 13-15); assay: ELISA, kappa-sCD40-Flag fusion captured on anti-Flag, anti-human IgG Fc-HRP
T6 construct: also called B (13-15)
Description: as §1

[7] = target: T7, kappa-sCD40(1-94)-Flag mutant fragment A (multiple mutations of residues 1-5) (human, UniProt P25942 26-114); assay: as above
T7 construct: The text says only multiple mutations of residues 1-5 (human to mouse differences); that mutant A carries exactly these is inferred; also called A (1-5); not shown: N-terminal human kappa light chain; C-terminal Flag tag
Description: as §1

[8] = target: T8, kappa-sCD40(1-94)-Flag mutant fragment D (multiple mutations of residues 33-36) (human, UniProt P25942 21-114); assay: as above
T8 construct: The text says only multiple mutations of residues 33-36 (human to mouse differences); that mutant D carries exactly these is inferred; also called D (33-36); not shown: N-terminal human kappa light chain; C-terminal Flag tag
T8 chain: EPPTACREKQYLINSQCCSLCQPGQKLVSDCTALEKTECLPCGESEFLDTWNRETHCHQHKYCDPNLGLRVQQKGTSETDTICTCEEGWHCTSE
Description: as §1

[9] = target: T9, kappa-sCD40(1-94)-Flag mutant fragment C (multiple mutations of residues 25, 26, 28 and 30); assay: as above
T9 construct: also called C (25, 26, 28, 30)
Description: as §1

[10] = target: T10, soluble human CD40-MsIgG2a (human, UniProt P25942); assay: BLI (Octet QKe), antibody captured on anti-human Fc (AHC) biosensors, analyte soluble human CD40-MsIgG2a 3.13 to 0.098 nM, 25 C, 1:1 fit
T10 construct: soluble, fused to mouse IgG2a; also called recombinant human CD40-msG2a chimeric protein; CD40-MsIgG2a (Celldex, 60 kD by SDS-PAGE)
Description: Purified antibodies from Example 1 were captured on Anti-Human Fc Capture (AHC) biosensors (Fortebio Product No. 18-5060). Each antibody was prepared in dilution buffer (10mMPO4+150 mM NaCl+1 mg/mL BSA+0.5% Tween 20, pH 7.2) to 0.5 μg/mL and loaded on freshly hydrated AHC biosensors for 35-50 sec at 25° C. and 1000 rpm plate shake speed to achieve a target response of 0.2 nm. Low levels of ligand were captured to limit any effects of mass transport of analyte on kinetic parameters. For one assay, eight biosensors were loaded with the same antibody.
Binding was determined by exposing six of the antibody loaded biosensors to analyte: soluble human CD40-MsIgG2a (Celldex, 60 kD by SDS-PAGE). Affinity measurements were determined using 2-fold serial dilutions of analyte ranging from 3.13 to 0.098 nM in dilution buffer at 25° C. and 1000 rpm plate shake speed. Association of the antibody loaded biosensors in analyte wells was carried out for 1200 seconds, the biosensors were then moved to dilution buffer wells for 2.5 hrs (9000 sec) for dissociation measurements.
Fortebio's Data Analysis Software version 8.2.0.7 (Pall ForteBio, Menlo Park, CA) was used in each case to derive kinetic parameters from the concentration series of analyte in dilution buffer binding to captured antibody. The association and dissociation curves were fitted to a 1:1 binding model using the data analysis software according to the manufacturer's guidelines.

B1: anti-CD40 human monoclonal antibody 3C3 (antibody, human IgG2, kappa, V domains shown)
VH: QVQLVESGGGVVQPGRSLRLSCAGSGFIFSRYGMYWVRQAPGKGLEWVAVIWYDGSYKYYADSVKGRFTISRDNSKNTLYLQMNSLRAEDTAVYYCARESPWYYFDYWGQGTLVTVSS
VL: DIQMTQSPSSLSASVGDRVTITCRASQGISNYLAWYQQKPGKVPKLLIYAASTLQSGVPSRFSGSGSGTDFTLTISSLQPEDVATYYCQKYKSAPFTFGPGTKVDIKR
notes: Human IgG2, C-terminal lysine removed; also called anti-CD40 mAb 3C3; CD40 antibody 3C3
What does the source list for B1?
EC50 (read off the curve) [1]: ~0.2 µg/mL; EC50 (read off the curve) [2]: ~0.03 µg/mL; EC50 (read off the curve) [3]: ~0.06 µg/mL; EC50 (read off the curve) [4]: ~0.02 µg/mL; EC50 (read off the curve) [5]: ~0.09 µg/mL; Average OD [6]: 2.03 OD 450-650; Average OD [7]: 0.189 OD 450-650; Average OD [8]: 0.092 OD 450-650; Average OD [9]: 1.49 OD 450-650; Kd [10]: 10.7 pM; kon [10]: 813000 M⁻¹ s⁻¹

B2: anti-CD40 human monoclonal antibody 3G5 (antibody, human IgG2, V domains shown)
VH: QVQLVESGGGVVQPGKSLRLSCAASGFTFSSNGIHWVRQAPGKGLEWVAVIWSDGSNKFYADSVKGRFTISRDNSKNTLYLQMNSLRAEDTAVYYCARASGSGSYYNFFDYWGQGTLVTVSS
VL: EIVMTQSPATLSVSPGERATLSCRASQSVRSNLAWYQQKPGQAPRLLIYGASTRATGIPARFSGSGSGTEFTLTINSLQSEDFAVYYCQQHNKWITFGQGTRLEIK
notes: Human IgG2
How did the Kd [10] turn out when B2 was run?
The Kd was 3.3 pM.
